The nanobody polyreactivity screen of Harvey et al. (2022)

Test: yeast display, Sf9 membrane polyspecificity reagent, FACS + sequencing; frameworks hold sequencing errors
Summary of the method: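 Sorting gates, low and high (top ~1%), were placed on anti-HA fluorescence to track expression and on streptavidin fluorescence to track reagent binding. A clone's polyreactivity label is taken from the gate it came out of. The reagent was 10% biotinylated, detergent-solubilized Sf9 membrane, applied for 1 hour at 4 °C to galactose-induced yeast display cells.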

Sequence	polyreactivity (PSR sort gate)
QVQLVESGGGLVQAGGSLRLSCAASGRTFVTNAMGWYRQAPGKERELVAAISSSGGSTYYADSVKGRFTISRDNAKNTVFLQMNSLKPEDTAVYYCAVGGQTKGQYDYWGQGTQVTVSS	low polyreactivity
QVQLVESGGGLVQAGGSLRLSCAASGRTFVTNAMGWYRQAPGKERELVATIRFSGGGTYYAVSVKGRFTISRDNAKNTVYLQMNSLKPEDTAVYYCNADSIDPFLYDYWGQGTQVTVSS	low polyreactivity
QVQLVESGGGLVQAGGSLRLSCAASGRTFVTYAMGWYRQAPGQERELVAAISASGGSTYYADSVKGRFTISRDNAKNTVYLQMNSLKPEDTAVYYCAKTYFLATPYGYWGQGTQVTVSS	low polyreactivity
QVQLVESGGGLVQAGGSLRLSCAASGRTFVTYGMGWYRQAPGKERELVATIRSGTTTNYADSVKGRFTISRDNAKNTVYLQMNSLKPEDTAVYYCNARGLRASSRRYYYWGQGTQVTVSS	high polyreactivity
QVQLVESGGGLVQAGGSLRLSCAASGRTFVVNAMGWYRQAPGKERELVAAITRRGGITYYADSVKGRFTISRDNAKNTVYLQMNSLKPEDTAVYYCAADRSYYPDTRTTYGYNYWGQGTQVTVSS	low polyreactivity
QVQLVESGGGLVQAGGSLRLSCAASGRTFVVNAMGWYRQAPGKERELVAAIYADSVKGRFTISRDNEKNTVYLQMNSLKPEDTAVYYCAASGGTWVNYRPEYDYWGQGTQVTVSS	low polyreactivity
QVQLVESGGGLVQAGGSLRLSCAASGRTFVVYAMGWYRQAPGKERELVAAISWSGGLTYYADSVKGRFTISRDNAKNTVYLQLNSVKPEDTAVYYCAAEVYLYKYVYYYWGQGTQVTVSS	high polyreactivity
QVQLVESGGGLVQAGGSLRLSCAASGRTFVWNVMGWYRQAPGKEREFVAAISGGSTYYADSVKGRFTISRDNAKNTVYLQMTSLKPEDTAVYYCAADSKLHPRYEYWGQGTQVTVSS	low polyreactivity
QVQLVESGGGLVQAGGSLRLSCAASGRTFVYNAMGWYRPAPGKERELVAAIDGGGDRTYYADSVKGRFTISRDNAKNTVYLQMNSLKPEDTAVYYCARDPGDTYYYSYPEGDYWGQGTQVTVSS	low polyreactivity
QVQLVESGGGLVQAGGSLRLSCAASGRTFVYNAMGWYRQAPGKERELVAAIDGGGDRTYYADSVKGRFTISRDNAKNTVYLQMNSLKPEDTAVYYCARDPGDTYYYSYPEGDYWGLGTQVTVSS	low polyreactivity
QVQLVESGGGLVQAGGSLRLSCAASGRTFVYNAMGWYRQAPGKERELVAAITSGGRTYYADSVKGRFTISRDNAKNTVYLQMNSLKPEDTAVYYCNAGVGARESDYWGQCTQVTVSS	low polyreactivity
QVQLVESGGGLVQAGGSLRLSCAASGRTFVYNAMGWYRQAPGKERELVAAITTSGASTYYADSVKGRFTISRDNAKNTVYLQMNSLKPEDTAVYYCNAYSRYSYGRTYGYWGQGTQVTVSS	high polyreactivity
QVQLVESGGGLVQAGGSLRLSCAASGRTFVYNAMGWYRQAPGKERELVAGITGSGDSTYYADSVKGRFTISRDNAKNTVYLQMNSLKPEDTAVYYCNQLVEEDYWGQGTQVTVSS	low polyreactivity
QVQLVESGGGLVQAGGSLRLSCAASGRTFVYNAMGWYRQAPGNERELVAAITSGGRTYYADSVKGRFTISRDNAKNTVYLQMNSLQPEDTAVYYCAKRFWFNTYAAHPAGFDYWGQGTQVTVSS	low polyreactivity
QVQLVESGGGLVQAGGSLRLSCAASGRTFVYNAMGWYRQEPGKERELVAAITWNGGSKYYADSVKGRFTISRDNAKITVYLQMNSLKPEDTAVYYCNRDVRYVGPSGFDYWGQGTQVTVSS	high polyreactivity
QVQLVESGGGLVQAGGSLRLSCAASGRTFVYYAMGWYRQAPGKERELVAAITWSGGRTYYADSVKGRFTISRDNAKNTVYLQMNSLKPEDTAVYYCNRDQWPWESGYAYNYWGQGTQVTVSS	low polyreactivity
QVQLVESGGGLVQAGGSLRLSCAASGRTFVYYAMGWYRQAPGTERELVAAITFSGGYTYYADSVKGRFTISRDNAKNTVYLQMNSLKPEDTAVYYCAAQYRYSYPLGDYWGQGTQVTVSS	low polyreactivity
QVQLVESGGGLVQAGGSLRLSCAASGRTFVYYAMGWYSQAPGKERELVAAISSSGGSTSYADSVNGRFTISRDNAKNTVYLQMNSVKPEDTAVYYCAADVSVSGYYYWGQGTQVTVSS	high polyreactivity
QVQLVESGGGLVQAGGSLRLSCAASGRTFVYYAMVWYRQAPGKERELVATISRRGGGTYYADSVKGRFTISRDNAKNTVYLQMNSLKPEDTAVYYCNAKWTSHGTYAEDYWGQGTQVTVSS	high polyreactivity
QVQLVESGGGLVQAGGSLRLSCAASGRTFVYYDMGWYRQAPGKERELVASINWSGGSTYYADSVKGRFTISRDNAKNTVYLQMNSLKPEDTAVYYCAKEEITEWGVDSWGQGTQVTVSS	low polyreactivity
QVQLVESGGGLVQAGGSLRLSCAASGRTFVYYDMGWYRQAPGKERELVASISSGDSTNYADSVKGRFTISRDNAKNTFYLQMNSLKPEDTAVYYCAAQYSWGHYYTFDYWGLGTQVTVSS	low polyreactivity
QVQLVESGGGLVQAGGSLRLSCAASGRTFWDNAMGWYRQAPAKERELVAAITFRGGTTYYADSVKGRFTISRDNAKNTVYIQMNSLKPEDTAVYYCAARNGLYRLYYYWGQGTQVTVSS	high polyreactivity
QVQLVESGGGLVQAGGSLRLSCAASGRTFWEHAMGWYRQAPGKERELVAAISGDSGSTYYADSVKGRFTISRDNANNSVYLQMNSLKPEDTAVYYCAGDSDRDDSYPYYYWGQGTQVTVSS	low polyreactivity
QVQLVESGGGLVQAGGSLRLSCAASGRTFWFYAMGWYRQAPGKERELVASITSGGGTNYADSVKGRFTISRDNAKNTVYLQMNRLKPEDTAVYYCAAARKLDATTYYKFDYWGQVTQVTVSS	high polyreactivity
QVQLVESGGGLVQAGGSLRLSCAASGRTFWGNAMGWYRQAPGKEREFVAGITQSDGSTYYADSVKGRFTISRDNAKNTVYLQMNSLKPEDTAVYYCAATPYSTQGLRPKFDYWGQGTQVTVSS	low polyreactivity
QVQLVESGGGLVQAGGSLRLSCAASGRTFWGYALGWYRQAPGKERELVAAISSGGETTYADSVKGRFTISRDNAKNTVYLQMNSMKPEDTAVYYCAADRWITVYILGADGYDYWGQGTQVTVSS	low polyreactivity
QVQLVESGGGLVQAGGSLRLSCAASGRTFWGYAMGWYRQAPGKERELVAAISWSGTSTYYADSVKGRFTISRDNAKNTVYLQMNSLKPEDTAVYYCARAVNDWRRKYNYWGQGTQVTVSS	high polyreactivity
QVQLVESGGGLVQAGGSLRLSCAASGRTFWKYVMGWYRQAPGKERELVAVISRPAGSTYYADSVKGRFTISRDNAKNSVYLQMNSLKPEDTAVYYCAKRPKNKPVLGDYDHWGQGTQVTVSS	low polyreactivity
QVQLVESGGGLVQAGGSLRLSCAASGRTFWRNAMGWYRQAPGKERELVAAINSGGRTYYADSVKGRFTISRDNAKNTVYLQMNSLKPEDTAVYYCAAVYSQSTKRYELYYWGQGTQVTVSS	high polyreactivity
QVQLVESGGGLVQAGGSLRLSCAASGRTFWRYAMGWYRQAPGKERELVAAITSGGGSTYYADSVKGRFTISRDNAKNTVSLQMNSLKPEDTAVYYCNRAGRGRSFKGDYWGQGTQVTVSS	high polyreactivity
